Source: paper PMC12325614 (Nature Communications, 2025)
Values belong to the binder of their own block, whether it stands above or below them.

Biological target: 4-Ig human B7H3 (analyte of the Biacore SPR) (Homo sapiens, UniProt Q5ZPR3)
Assay: SPR

Chain of 4-Ig human B7H3 (analyte of the Biacore SPR) (Q5ZPR3 29-466): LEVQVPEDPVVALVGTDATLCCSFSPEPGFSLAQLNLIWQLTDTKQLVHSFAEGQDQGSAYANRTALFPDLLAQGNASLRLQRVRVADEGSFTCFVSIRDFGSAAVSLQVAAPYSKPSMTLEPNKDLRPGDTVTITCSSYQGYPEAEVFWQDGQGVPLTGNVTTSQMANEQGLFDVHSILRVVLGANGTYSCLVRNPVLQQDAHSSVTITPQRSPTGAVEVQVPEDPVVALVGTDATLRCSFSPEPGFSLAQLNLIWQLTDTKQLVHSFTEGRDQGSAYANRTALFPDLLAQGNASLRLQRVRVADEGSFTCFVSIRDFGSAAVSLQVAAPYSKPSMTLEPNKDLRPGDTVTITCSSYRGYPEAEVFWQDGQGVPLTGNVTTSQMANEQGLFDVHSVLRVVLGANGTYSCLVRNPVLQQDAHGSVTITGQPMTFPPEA

Kd: 0.44 nM
B1: TE9 whole antibody in human IgG1 format (antibody, V domains shown)
VH: QVQLQQSGAALVKPGTSVKLSCKASGYTFTSYWMHWVKQRPGQGLEWIGMIHPKSGSVDYNEKFTNKATLTGDKSSGTAYMQLSSLTSEDSAVYYCARGGYGSPFDYWGQGTTVTVSS
VL: ENVLTQSPAIMSASPGEKVTMTCSASSSVSYMYWYQQKPGSSPRLLIYRTSNLASGVPARFSGSGSGTSYSLTISSMEAEDAATYYCQQWSSNPPTFGGGTKLEIK

Kd: 1.61 nM
B2: MGA271 whole antibody in human IgG1 format (antibody, V domains shown)
VH: EVQLVESGGGLVQPGGSLRLSCAASGFTFSSFGMHWVRQAPGKGLEWVAYISSDSSAIYYADTVKGRFTISRDNAKNSLYLQMNSLRDEDTAVYYCGRGRENIYYGSRLDYWGQGTTVTVSS
VL: DIQLTQSPSFLSASVGDRVTITCKASQNVDTNVAWYQQKPGKAPKALIYSASYRYSGVPSRFSGSGSGTDFTLTISSLQPEDFATYYCQQYNNYPFTFGQGTKLEIK
